In article PMC8481266, “Structural and functional characterization of the bacterial biofilm activator RemA” (Nature Communications, 2021):
Values joined by “and” are separate entries in the source; they are usually repeats but may differ in a detail not shown here. Equal entries are not always repeated. Blank lines part the entries; values can stand above or below the molecule they belong to.

Assays:
[1] = biological target: T1, (Gt)RemA-R51A R51A (Geobacillus thermodenitrificans NG-80) (UniProt A4IM41); test: EMSA; details: 20 mM HEPES pH 8.0, 1000 mM NaCl, 20 mM MgCl2, 20 mM KCl, 0.3 ug/ml BSA, 25 ug/ml herring sperm DNA, 10% glycerol, 0.25 mg/ml Orange-G; 1 pmol DNA in 14.5 ul …
T1 sequence: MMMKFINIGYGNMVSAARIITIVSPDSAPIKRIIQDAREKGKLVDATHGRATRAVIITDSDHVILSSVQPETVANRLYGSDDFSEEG

[2] = biological target: T2, (Gt)RemA-R50A R50A (Geobacillus thermodenitrificans NG-80) (UniProt A4IM41); test: EMSA; details: 20 mM HEPES pH 8.0, 1000 mM NaCl, 20 mM MgCl2, 20 mM KCl, 0.3 ug/ml BSA, 25 ug/ml herring sperm DNA, 10% glycerol, 0.25 mg/ml Orange-G; 1 pmol DNA in 14.5 ul …
T2 sequence: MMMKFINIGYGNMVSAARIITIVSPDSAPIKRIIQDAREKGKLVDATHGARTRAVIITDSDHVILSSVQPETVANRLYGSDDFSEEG

[3] = biological target: T3, (Gt)RemA wild type, His-tagged (Geobacillus thermodenitrificans NG-80) (UniProt A4IM41); test: EMSA; details: 20 mM HEPES pH 8.0, 1000 mM NaCl, 20 mM MgCl2, 20 mM KCl, 0.3 ug/ml BSA, 25 ug/ml herring sperm DNA, 10% glycerol, 0.25 mg/ml Orange-G; 1 pmol DNA in 14.5 ul …
T3 sequence: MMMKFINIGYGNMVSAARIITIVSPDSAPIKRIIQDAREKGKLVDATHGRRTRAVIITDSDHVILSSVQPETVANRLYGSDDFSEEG

[4] = biological target: T4, (Gt)RemA-R18W R18W (Geobacillus thermodenitrificans NG-80) (UniProt A4IM41); test: EMSA; details: 20 mM HEPES pH 8.0, 1000 mM NaCl, 20 mM MgCl2, 20 mM KCl, 0.3 ug/ml BSA, 25 ug/ml herring sperm DNA, 10% glycerol, 0.25 mg/ml Orange-G; 1 pmol DNA in 14.5 ul …
T4 sequence: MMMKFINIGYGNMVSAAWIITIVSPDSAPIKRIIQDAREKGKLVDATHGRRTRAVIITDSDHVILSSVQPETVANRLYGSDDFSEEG

[5] = biological target: T5, (Gt)RemA wild type, tag-free (Geobacillus thermodenitrificans NG-80) (UniProt A4IM41); test: EMSA; details: 20 mM HEPES pH 8.0, 1000 mM NaCl, 20 mM MgCl2, 20 mM KCl, 0.3 ug/ml BSA, 25 ug/ml herring sperm DNA, 10% glycerol, 0.25 mg/ml Orange-G; 1 pmol DNA in 14.5 ul …
T5 sequence: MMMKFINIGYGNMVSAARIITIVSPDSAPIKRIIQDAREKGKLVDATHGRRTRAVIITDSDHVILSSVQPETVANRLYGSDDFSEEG

[6] = biological target: (Gt)RemA-R18W (Geobacillus thermodenitrificans NG-80); test: crystal structure; sitting-drop crystallisation at 20 °C; X-ray data at ESRF; wild type by Se-SAD, variants by molecular replacement
[7] = biological target: (Gt)RemA-R18W (Geobacillus thermodenitrificans NG-80); test: SEC-MALS; analytical SEC-MALS of the two major SEC peaks; (Gt)RemA at 500 µM (Fig. 1b); R18W variant in Supplementary Fig. 1d
[8] = biological target: (Gt)RemA-R51A/R53A (Geobacillus thermodenitrificans NG-80); test: crystal structure; sitting-drop crystallisation at 20 °C; X-ray data at ESRF; wild type by Se-SAD, variants by molecular replacement
[9] = biological target: (Gt)RemA, RemA from Geobacillus thermodenitrificans, wild type, with N-terminal His-tag (Geobacillus thermodenitrificans NG-80); test: as above
[10] = biological target: (Gt)RemA, RemA from Geobacillus thermodenitrificans, wild type, with N-terminal His-tag (Geobacillus thermodenitrificans NG-80); test: as above; remark: listed apart in the source
[11] = biological target: (Gt)RemA, RemA from Geobacillus thermodenitrificans, wild type, with N-terminal His-tag (Geobacillus thermodenitrificans NG-80); test: SEC-MALS; analytical SEC-MALS of the two major SEC peaks; (Gt)RemA at 500 µM (Fig. 1b); R18W variant in Supplementary Fig. 1d
[12] = biological target: (His)-GB1-tagged (Gt)RemA (Geobacillus thermodenitrificans NG-80); test: SEC; SEC analysis of the (His)-GB1 constructs of (Bs)RemA and (Gt)RemA (Supplementary Figs. 2a, b)
[13] = biological target: the molecule itself; test: as above

Molecule: CTCCTCTATTCCTGTCGTTATTTCGTTCATTATAAGGAATTTTTCGTTCTTTATAAAATTTAAAATAATAAGGGAAGTGCAGTAAATTAGAGGAAAATCATGATTTTGTTCTCCAAAGAGAACTTATTGGCTTATTTTGCAATTTTTAAATAATAACGTTTTCTTTTATAATCCAATCATTAACAGAAAGGGGCGCGGGAAGCCAGCCGCGGGAAGGCTGAAGGCTATGAATACATGAATGAGAATATGAGTTTCAAAGAATTATATGCGATTGTCAGACACAGATTCG (double strand) [PepsA 289 bp fragment]
binding [1]: no binding
binding [2]: no binding
binding [3]: binds
binding [4]: binds
binding [5]: binds

stoichiometry N [6]: 7
stoichiometry N [7]: 14 and 7
Molecule: (Gt)RemA-R18W (natural protein)

stoichiometry N [8]: 8
Molecule: (Gt)RemA-R51A/R53A (natural protein)

stoichiometry N [9]: 16
stoichiometry N [10]: 8
stoichiometry N [11]: 16 and 8
Molecule: (Gt)RemA, RemA from Geobacillus thermodenitrificans, wild type, with N-terminal His-tag (natural protein)

stoichiometry N [12]: 8
Molecule: (His)-GB1-tagged (Gt)RemA (natural protein)

B1: (His)-GB1-tagged (Bs)RemA (natural protein, B. subtilis strain 3610, UniProt Q7WY72 1-89, looked up)
chain: MTIKLINIGFGNIISANRMISIVSPESAPIKRMIQDARDRGMLIDATYGRRTRAVVVMDSDHIILSAVQPETVAHRLSVKEEIMDEGQG
notes: RemA of Bacillus subtilis strain 3610; MW 9.6 kDa; A TEV cleavage site stands between the solubility tag and RemA; removal of the tag led to precipitation; also called His-GB1-(Bs)RemA; (Bs)RemA (His)-GB1 construct; not shown: His, N-terminal, kept
stoichiometry N [13]: 8
